The results in this text go back to PMC9257163, “Fluorescence Detection of Cancer Stem Cell Markers Using a Sensitive Nano-Aptamer Sensor”.

One data set deals with EGFR (UniProt P00533 25-645). Briefly: competition (FRET turn-on displacement of AuNPs-ssRNA); 2 uM protein; QD-aptamers redispersed in PBS; sensor annealed from 95 °C to room temperature; binding buffer, pH and temperature not stated in the material. The settings on record: chain copies: 2; label: CdSe/ZnS QD on aptamer 5' end; AuNP (25 nm) on ssRNA 5' end; partially complementary RNA duplex; about 7 aptamers per QD; ssRNA displaced by protein.

A further data set concerns the target T1, IL-1α (UniProt P01583 113-271).
T1 sequence: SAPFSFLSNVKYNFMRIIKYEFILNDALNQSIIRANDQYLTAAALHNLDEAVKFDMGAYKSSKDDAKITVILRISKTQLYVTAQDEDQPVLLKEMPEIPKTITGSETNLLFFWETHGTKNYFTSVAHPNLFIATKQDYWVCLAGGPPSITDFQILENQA
The data set is described as above. The note with it: label: CdSe/ZnS QD on aptamer 5' end; AuNP (25 nm) on ssRNA 5' end; partially complementary RNA duplex; about 7 aptamers per QD; ssRNA displaced by protein.

In another data set the target is TGF-β1 (UniProt P01137 279-390). The description is as above. The settings on record: chain copies: 2; label: CdSe/ZnS QD on aptamer 5' end; AuNP (25 nm) on ssRNA 5' end; partially complementary RNA duplex; about 7 aptamers per QD; ssRNA displaced by protein.
For a further data set, the target named is T2, CD133 (prominin-1) (UniProt O43490 20-865).
T2 sequence: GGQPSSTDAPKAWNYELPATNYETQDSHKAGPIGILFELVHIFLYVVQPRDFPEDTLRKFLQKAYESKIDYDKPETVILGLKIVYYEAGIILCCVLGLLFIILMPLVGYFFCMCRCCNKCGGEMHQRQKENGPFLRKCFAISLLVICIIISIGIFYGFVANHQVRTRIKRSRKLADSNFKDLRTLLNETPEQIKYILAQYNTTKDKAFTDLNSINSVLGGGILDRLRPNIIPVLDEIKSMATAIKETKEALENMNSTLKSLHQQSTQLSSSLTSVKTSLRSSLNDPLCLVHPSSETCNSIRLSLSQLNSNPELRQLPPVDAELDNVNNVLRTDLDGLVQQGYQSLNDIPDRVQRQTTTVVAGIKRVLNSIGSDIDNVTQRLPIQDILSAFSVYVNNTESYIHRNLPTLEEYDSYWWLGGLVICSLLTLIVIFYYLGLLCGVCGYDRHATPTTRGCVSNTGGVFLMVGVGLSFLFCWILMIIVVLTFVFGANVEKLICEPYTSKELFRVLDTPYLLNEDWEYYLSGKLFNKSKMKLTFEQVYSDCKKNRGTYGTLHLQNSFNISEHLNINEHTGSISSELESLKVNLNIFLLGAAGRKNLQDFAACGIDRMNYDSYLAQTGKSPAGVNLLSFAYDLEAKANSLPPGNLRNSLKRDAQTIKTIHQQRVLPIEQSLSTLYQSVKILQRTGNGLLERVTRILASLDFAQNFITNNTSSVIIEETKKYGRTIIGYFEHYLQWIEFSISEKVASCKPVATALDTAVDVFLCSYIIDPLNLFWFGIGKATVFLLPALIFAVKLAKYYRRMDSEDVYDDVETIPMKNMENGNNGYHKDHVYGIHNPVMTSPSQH
Briefly: competition (FRET turn-on displacement of AuNPs-ssRNA); 0-1.539 uM CD133, 5 nM QD-aptamer; maximum recovery 68%; LOD 6.99 nM (not a Kd); QD-aptamers redispersed in PBS; sensor annealed from 95 °C to room temperature; binding buffer, pH and temperature not stated in the material. The settings on record: label: CdSe/ZnS QD on aptamer 5' end; AuNP (25 nm) on ssRNA 5' end; partially complementary RNA duplex; about 7 aptamers per QD; ssRNA displaced by protein.

TGF-β1, sequence (P01137 279-390): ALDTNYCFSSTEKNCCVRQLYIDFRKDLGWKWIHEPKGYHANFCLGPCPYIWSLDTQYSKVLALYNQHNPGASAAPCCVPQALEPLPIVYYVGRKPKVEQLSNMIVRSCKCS

B1: CD133 aptamer sensor (QD-aptamer hybridized to AuNPs-ssRNA) (mixed)
RNA 1: CCCUCCUACAUAGGG
RNA 2: CCCUAUG
modifications: 5'-NH2 on aptamer; 5'-SH on ssRNA
With B1, the binding result in the data set with EGFR is on record as “no binding”; with IL-1α, “no binding”; with TGF-β1, “no binding”; in the data set with CD133 (prominin-1) it was “binds”.
